Experimental findings from article PMC10540840, “PET imaging with [^68Ga]-labeled TGFβ-targeting peptide in a mouse PANC-1 tumor model” (Frontiers in Oncology, 2023) are described below.

This experiment deals with Transforming growth factor β (human (endogenous in PANC-1)).

Ends that are not written are not given here. * marks the point of attachment. DOTA = O=C(O)CN1CCN(CC(=O)O)CCN(CC(=O)*)CCN(CC(=O)O)CC1; PEG (n : 3) = short polyethylene glycol linker, n = 3

Sequence of Transforming growth factor β (human (endogenous in PANC-1)) (P01137 279-390): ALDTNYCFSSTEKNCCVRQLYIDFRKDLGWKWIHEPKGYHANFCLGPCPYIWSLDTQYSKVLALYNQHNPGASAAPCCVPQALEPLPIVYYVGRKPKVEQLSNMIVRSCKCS

Molecule {DOTA-PEG (n : 3)}-TSLDASIWAMMQNA (also: [68Ga] chelated by the DOTA) [[^68Ga]Ga-DOTA-P144] displayed a tumor uptake (%ID/g-mean) of [^68Ga]Ga-P144 by microPET at 1 h in PANC-1 tumor-bearing mice, unblocked group (n = 4) of 5.36 %ID/g-mean.
